# B1: recombinant 6xHis-GSAAT (enzyme)
# chain: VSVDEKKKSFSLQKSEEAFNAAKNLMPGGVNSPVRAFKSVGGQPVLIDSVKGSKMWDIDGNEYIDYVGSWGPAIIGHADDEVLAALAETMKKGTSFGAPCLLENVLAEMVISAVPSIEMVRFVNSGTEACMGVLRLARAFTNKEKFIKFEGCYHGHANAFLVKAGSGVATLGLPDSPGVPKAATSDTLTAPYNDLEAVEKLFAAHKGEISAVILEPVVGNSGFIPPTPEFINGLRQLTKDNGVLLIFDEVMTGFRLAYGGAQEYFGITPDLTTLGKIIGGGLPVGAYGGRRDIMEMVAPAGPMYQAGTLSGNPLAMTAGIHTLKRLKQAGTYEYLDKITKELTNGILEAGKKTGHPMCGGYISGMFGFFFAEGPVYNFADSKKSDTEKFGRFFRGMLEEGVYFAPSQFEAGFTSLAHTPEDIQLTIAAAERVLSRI
# Tests used:
# Details in all cases: both partners purified
# recombinant 6xHis-GSAAT = molecular target: B1; assay: MST; 6xHis-GBP labelled with RED-NHS 2nd generation as target, with or without GluTR, ligand in 1:1 dilutions from 5 nM to 110 µM; Monolith NT.115, 30°C, 40% LED power, PBS
# recombinant 6xHis-GluTR = molecular target: T1, recombinant 6xHis-GluTR (Arabidopsis thaliana, UniProt P42804 62-543); assay: MST; 6xHis-GSAAT labelled with RED-NHS 2nd generation as target, 6xHis-GluTR titrated; Monolith NT.115, 30°C, PBS
# T1 construct: Glutamyl-tRNA reductase (GluTR), Arabidopsis thaliana; Named only in the results on MST; the methods on purification list only GST-GluTR
# [1] = molecular target: T2, labelled 6xHis-GBP incubated with GluTR (GBP/GluTR) (Arabidopsis thaliana, UniProt Q9LU39 43-317; P42804 62-543, RED-NHS 2nd generation dye); assay: MST; 6xHis-GBP labelled with RED-NHS 2nd generation as target, with or without GluTR, ligand in 1:1 dilutions from 5 nM to 110 µM; Monolith NT.115, 30°C, 40% LED power, PBS
# T2 construct: as m7; Glutamyl-tRNA reductase (GluTR), Arabidopsis thaliana; The sentence on this titration says only GluTR; 6xHis-GluTR is named for the titration before it; source: recombinant proteins mixed before the titration (6xHis-GBP: E. coli Rosetta 2, purified)
Kd (recombinant 6xHis-GSAAT) [nM],Kd (recombinant 6xHis-GluTR) [nM],Kd [1] [nM],Binder
178,–,–,"recombinant 6xHis-GBP (natural protein, Arabidopsis thaliana, UniProt Q9LU39 43-317, looked up, Labelled with the dye RED-NHS 2nd generation where it was the MST target; unlabelled in the in vitro pull-down; also called 6× His-GBP; source: E. coli Rosetta 2, purified (Ni-NTA)) SVSTTLDTPATASTHKPFPAEVSRSIMELSSVGTLSTLTHDGWPLGVGVRFAVDKDGTPVLCLNRSVSPDKRSALHVQLEQCGLRTPQCTIQGSIGRPGDDTVLKRLSATWREKFGEEVKEDSLYVVAVDRVLQMEDFMEDGIWVASSDYKNASPDPLRDIAEDIVNQINANNMEDIFRFCNVYVDLDFVVSETKMIWMDRLGFDLRVWSPRGVYDVRIPFPMEVTDEKGAKSSFNGMSQLAWEVEKSYCPADFNKVKLLKQVVGSSHSHKGGGQ"
–,3000,940,B1
